Test results as given in PMC4674489.

Target: GST-PTN(60-110) fusion protein (human)
Assay: pull-down

Chain of GST-PTN(60-110) fusion protein (human) (P21246 60-110): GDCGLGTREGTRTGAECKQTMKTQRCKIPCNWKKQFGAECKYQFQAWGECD

“Neuropilin-1 (NRP-1), endogenous (from UniProt O14786 22-923) (receptor)” gave an NRP-1 pulled down, percent of that with GST-PTN(1-136) of 45%.
